Test results from patent US6096512.

Legend:
[1] = target: bovine cytochrome C, native (bovine) (UniProt P62894)
[2] = target: bovine cytochrome C, reduced and carboxymethylated (bovine) (UniProt P62894)
[3] = target: T1, bovine rhodanese, native (bovine) (UniProt P00586)
T1 sequence: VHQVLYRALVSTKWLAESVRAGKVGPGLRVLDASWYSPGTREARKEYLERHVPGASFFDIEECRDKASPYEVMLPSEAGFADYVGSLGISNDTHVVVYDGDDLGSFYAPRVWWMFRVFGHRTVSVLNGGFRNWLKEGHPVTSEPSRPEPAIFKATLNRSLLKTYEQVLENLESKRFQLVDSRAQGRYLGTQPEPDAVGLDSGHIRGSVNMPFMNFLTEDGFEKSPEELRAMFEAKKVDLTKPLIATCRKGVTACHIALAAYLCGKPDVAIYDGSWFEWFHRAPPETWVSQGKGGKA

[4] = target: T2, bovine rhodanese, reduced and carboxymethylated (bovine) (UniProt P00586)
T2 sequence (chain, reduced and carboxymethylated): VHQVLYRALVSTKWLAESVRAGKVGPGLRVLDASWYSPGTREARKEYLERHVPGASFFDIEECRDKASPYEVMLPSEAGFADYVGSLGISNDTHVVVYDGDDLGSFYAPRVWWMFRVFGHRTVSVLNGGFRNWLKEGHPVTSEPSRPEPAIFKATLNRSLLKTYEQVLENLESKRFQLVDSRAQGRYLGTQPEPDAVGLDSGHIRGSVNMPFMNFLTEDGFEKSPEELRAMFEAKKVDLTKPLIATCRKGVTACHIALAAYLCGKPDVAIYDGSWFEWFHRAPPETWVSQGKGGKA

[5] = target: subtilisin, reduced and carboxymethylated
[6] = target: T3, synthetic acceptor peptide Arg-Ser-Pro-Pro-Pro
T3 sequence (peptide): RSPPP

[7] = target: T4, synthetic acceptor peptide Arg-Thr-Pro-Pro-Pro
T4 sequence (peptide): RTPPP

[8] = target: synthetic acceptor peptide Pro-Pro-Ala-D-Ser-Thr-D-Ser-Ala-Pro-Gly

B1: bovine colostrum UDP-GalNAc:polypeptide, N-acetylgalactosaminyltransferase (purified soluble enzyme) (enzyme)
chain: GLPAGDVLEPVQKPHEGPGEMGKPVVIPKEDQEKMKEMFKINQFNLMASEMIALNRSLPDVRLEGCKTKVYPDNLPTTSVVIVFHNEAWSTLLRTVHSVINRSPRHMLEEIVLVDDASERDFLKRPLESYVKKLKVPVHVIRMEQRSGLIRARLKGAAVSKGQVITFLDAHCECTVGWLEPLLARIKHDRKTVVCPIIDVISDDTFEYMAGSDMTYGGFNWKLNFRWYPVPQREMDRRKGDRTLPVRTPTMAGGLFSIDRDYFQEIGTYDAGMDIWGGENLEISFRIWQCGGTLEIVTCSHVGHVFRKATPYTFPGGTGQIINKNNRRLAEVWMDEFKNFFYIISPGVTKVDYGDISSRLGLRHKLQCRPFSWYLENIYPDSQIPRHYFSLGEIRNVETNQCLDNMARKENEKVGIFNCHGMGGNQVFSYTANKEIRTDDLCLDVSKLNGPVTMLKCHHLKGNQLWEYDPVKLTLQHVNSNQCLDKATDEDSQVPSIRDCSGSRSQQWLLRNVTLPEIF
Product formed nmol/min/mg (transfer of N-acetylgalactosamine to protein acceptors) [1]: < 0.1 nmol/min/mg | Product formed nmol/min/mg (transfer of N-acetylgalactosamine to protein acceptors) [2]: < 0.1 nmol/min/mg | Product formed nmol/min/mg (transfer of N-acetylgalactosamine to protein acceptors) [3]: < 0.1 nmol/min/mg | Product formed nmol/min/mg (transfer of N-acetylgalactosamine to protein acceptors) [4]: 3.3 nmol/min/mg | Product formed nmol/min/mg (transfer of N-acetylgalactosamine to protein acceptors) (myelin basic protein): 22.2 nmol/min/mg | Product formed nmol/min/mg (transfer of N-acetylgalactosamine to protein acceptors) (subtilisin, native): < 0.1 nmol/min/mg | Product formed nmol/min/mg (transfer of N-acetylgalactosamine to protein acceptors) [5]: 0.6 nmol/min/mg | Vmax /Km M^-1 s^-1 [6]: 0.4 M⁻¹ s⁻¹ | Km [7]: 3.3 mM | Vmax /Km M^-1 s^-1 [7]: 183 M⁻¹ s⁻¹ | Vmax /Km M^-1 s^-1 [8]: 1.2 M⁻¹ s⁻¹
